Measurements taken from PMC6179379, “The IgM pentamer is an asymmetric pentagon with an open groove that binds the AIM protein” (Science Advances, 2018).
Where “and” joins values, the source holds several entries; their conditions need not be identical. Equal values may be shown once.

Assays:
[1] = biological target: FLAG-tagged recombinant human IgM-Fc (human); assay: negative-stain EM; purified IgM-Fc or IgM made with the J chain, about 15 μg/ml, 1% uranyl acetate; reference-free 2D class averages (RELION)
[2] = biological target: FLAG-tagged mouse IgM-Fc Cys414Ser variant (mouse); assay: as above
[3] = biological target: FLAG-tagged mouse IgM-Fc Cys414Ser variant (mouse); assay: Western blotting after non-reducing SDS-PAGE; supernatant of HEK293T cells co-expressing FLAG-IgM-Fc and HA-J chain; anti-FLAG and anti-HA blots, reducing and nonreducing conditions
[4] = biological target: the molecule itself; assay: negative-stain EM; purified IgM-Fc or IgM made with the J chain, about 15 μg/ml, 1% uranyl acetate; reference-free 2D class averages (RELION)
[5] = biological target: the molecule itself; assay: negative-stain EM; purified FLAG-tagged mouse IgM-Fc oligomers made in the absence of the J chain; reference-free 2D class averages
[6] = biological target: T1, Mouse IgM-Fc pentamer with HA-tagged J chain (mouse, UniProt P01872 1-454; P01592 22-159); assay: co-IP; complex from co-culture supernatant purified on ANTI-FLAG M2 Affinity Gel, then on an anti-AIM antibody column; eluate blotted with anti-HA in a reducing condition, bands quantified with ImageJ; five experiments; conditions: partners not purified
T1 construct: Mouse immunoglobulin M heavy chain, Fc region: Cμ2-Cμ3-Cμ4 and the short tail; Mouse immunoglobulin J (joining) chain; as m2; also called Fc-pentamer/J-HA; IgM-Fc/J-HA; source: HEK293T transfected with pCAGGS-FLAG-mouse Fc and pCAGGS-mouse J chain-HA, co-cultured with cells expressing AIM-HA; not shown: FLAG, N-terminal, kept; copies: 10 + 1
T1 sequence (looked up) 1: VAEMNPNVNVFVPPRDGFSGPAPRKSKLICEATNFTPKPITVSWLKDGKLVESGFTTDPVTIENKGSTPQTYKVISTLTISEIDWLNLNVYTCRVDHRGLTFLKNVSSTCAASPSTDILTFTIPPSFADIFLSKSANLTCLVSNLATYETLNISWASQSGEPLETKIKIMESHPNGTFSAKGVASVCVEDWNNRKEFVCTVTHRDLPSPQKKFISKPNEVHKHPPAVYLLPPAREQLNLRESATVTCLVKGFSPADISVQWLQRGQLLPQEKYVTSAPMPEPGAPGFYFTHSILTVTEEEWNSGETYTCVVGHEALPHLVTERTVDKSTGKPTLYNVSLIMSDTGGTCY
T1 sequence (looked up) 2: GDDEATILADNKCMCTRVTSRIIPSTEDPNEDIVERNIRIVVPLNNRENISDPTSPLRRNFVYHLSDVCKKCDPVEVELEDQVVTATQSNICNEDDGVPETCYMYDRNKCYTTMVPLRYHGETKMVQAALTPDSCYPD

For “FLAG-tagged recombinant human IgM-Fc (domain or fragment)”, the stoichiometry N [1] was 5.

In the case of “FLAG-tagged mouse IgM-Fc Cys414Ser variant (domain or fragment)”, the stoichiometry N [2] is reported as 4 and 5 and the stoichiometry N [3] is reported as 4 and 5.

B1: FLAG-tagged recombinant mouse IgM-Fc (Cμ2 to tail) (domain or fragment, UniProt P01872 1-454, looked up)
chain: VAEMNPNVNVFVPPRDGFSGPAPRKSKLICEATNFTPKPITVSWLKDGKLVESGFTTDPVTIENKGSTPQTYKVISTLTISEIDWLNLNVYTCRVDHRGLTFLKNVSSTCAASPSTDILTFTIPPSFADIFLSKSANLTCLVSNLATYETLNISWASQSGEPLETKIKIMESHPNGTFSAKGVASVCVEDWNNRKEFVCTVTHRDLPSPQKKFISKPNEVHKHPPAVYLLPPAREQLNLRESATVTCLVKGFSPADISVQWLQRGQLLPQEKYVTSAPMPEPGAPGFYFTHSILTVTEEEWNSGETYTCVVGHEALPHLVTERTVDKSTGKPTLYNVSLIMSDTGGTCY
notes: Mouse immunoglobulin M heavy chain, Fc region: Cμ2-Cμ3-Cμ4 and the short tail (19 amino acids); also called mouse Fc; Fc monomer; source: HEK293T, transfected (pCAGGS-FLAG-IgM-Fc, with or without the J chain plasmid), in culture supernatant; not shown: FLAG, N-terminal, kept
B1 was tested, and the “stoichiometry N” value [4] was 5 and the “stoichiometry N” value [5] was 6.

B2: HA-tagged mouse AIM (natural protein, UniProt Q9QWK4 22-352, looked up)
chain: ESPTKVQLVGGAHRCEGRVEVEHNGQWGTVCDDGWDRRDVAVVCRELNCGAVIQTPRGASYQPPASEQRVLIQGVDCNGTEDTLAQCELNYDVFDCSHEEDAGAQCENPDSDLLFIPEDVRLVDGPGHCQGRVEVLHQSQWSTVCKAGWNLQVSKVVCRQLGCGRALLTYGSCNKNTQGKGPIWMGKMSCSGQEANLRSCLLSRLENNCTHGEDTWMECEDPFELKLVGGDTPCSGRLEVLHKGSWGSVCDDNWGEKEDQVVCKQLGCGKSLHPSPKTRKIYGPGAGRIWLDDVNCSGKEQSLEFCRHRLWGYHDCTHKEDVEVICTDFDV
notes: Mouse AIM (CD5L), secreted; also called AIM-HA; source: HEK293T, transfected (pCAGGS-AIM-HA), co-cultured with cells expressing FLAG-mouse Fc and J chain-HA; culture supernatant, co-purified with the Fc pentamer
In the case of B2, the “ratio of HA signal, AIM-HA versus J-HA” value [6] is reported as 1.3 ± 0.12 J-HA signal per AIM-HA signal and the “stoichiometry N” value [6] is reported as 1 AIM per pentamer.
